Measured values reported in PMC8152475 (Biomedicines, 2021).

How the values were obtained:
TBK1 = biological target: T1, TBK1 (Homo sapiens, UniProt Q9UHD2); type: binding
T1 sequence (Q9UHD2 1-729): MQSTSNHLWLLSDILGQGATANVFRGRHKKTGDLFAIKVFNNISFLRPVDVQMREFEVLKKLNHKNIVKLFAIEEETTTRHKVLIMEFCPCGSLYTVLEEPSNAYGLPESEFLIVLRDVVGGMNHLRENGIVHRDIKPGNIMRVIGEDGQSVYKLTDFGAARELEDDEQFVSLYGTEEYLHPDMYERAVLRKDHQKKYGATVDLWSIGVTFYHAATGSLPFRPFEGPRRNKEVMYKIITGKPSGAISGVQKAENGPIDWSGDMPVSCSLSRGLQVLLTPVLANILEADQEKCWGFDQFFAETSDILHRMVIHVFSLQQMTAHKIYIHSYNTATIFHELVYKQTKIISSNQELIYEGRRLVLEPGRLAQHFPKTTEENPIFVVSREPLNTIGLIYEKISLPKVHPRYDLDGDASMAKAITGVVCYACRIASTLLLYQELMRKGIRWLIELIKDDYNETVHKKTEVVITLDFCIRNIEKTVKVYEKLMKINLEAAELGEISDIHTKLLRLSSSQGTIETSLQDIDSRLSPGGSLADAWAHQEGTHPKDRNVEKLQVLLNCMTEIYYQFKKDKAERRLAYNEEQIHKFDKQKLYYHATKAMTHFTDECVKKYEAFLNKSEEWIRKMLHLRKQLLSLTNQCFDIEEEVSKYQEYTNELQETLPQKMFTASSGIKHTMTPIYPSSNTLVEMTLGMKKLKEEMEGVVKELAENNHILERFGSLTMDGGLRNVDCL

p47phox = type: binding

B1: MPT63: secretory immunodominant antigen of MTB (protein)
chain: AYPITGKLGSELTMTDTVGQVVLGWKVSDLKSSTAVIPGYPVAGQVWEATATVNAIRGSVTPAVSQFNARTADGINYRVLWQAAGPDTISGATIPQGEQSTGKIYFDVTGPSPTIVAMNNGMEDLLIWEP
domain of TBK1 required for binding (TBK1): the kinase domain in TBK1 was essential to bind MPT63 | domain of p47phox required for binding (p47phox): the PX domain in p47phox was important for the interaction with MPT63

B2: MPT64: secretory immunodominant antigen of MTB, located in the RD2 region (protein)
chain: APKTYCEELKGTDTGQACQIQMSDPAYNINISLPSYYPDQKSLENYIAQTRDKFLSAATSSTPREAPYELNITSATYQSAIPPRGTQAVVLKVYQNAGGTHPTTTYKAFDWDQAYRKPITYDTLWQADTDPLPVVFPIVQGELSKQTGQQVSIAPNAGLDPVNYQNFAVTNDGVIFFFNPGELLPEAAGPTQVLVPRSAIDSMLA
domain of TBK1 required for binding (TBK1): The kinase domain (1–301) in TBK1 and HK2 domain in HK2 were found to be essential for their interaction with MPT64
